The values below come from patent publication US20210063414A1, “METHODS FOR PREVENTING AND/OR TREATING BONE LOSS CONDITIONS BY MODULATING IRISIN” (Dana-Farber Cancer Institute, Inc., priority 2018, published 2021).

The target of experiment [1] is T1, MLO-Y4 cell surface proteins (Mus musculus, UniProt Q921G7).
T1 construct: endogenous in cells; host or cells: MLO-Y4
T1 sequence (Q921G7 33-616): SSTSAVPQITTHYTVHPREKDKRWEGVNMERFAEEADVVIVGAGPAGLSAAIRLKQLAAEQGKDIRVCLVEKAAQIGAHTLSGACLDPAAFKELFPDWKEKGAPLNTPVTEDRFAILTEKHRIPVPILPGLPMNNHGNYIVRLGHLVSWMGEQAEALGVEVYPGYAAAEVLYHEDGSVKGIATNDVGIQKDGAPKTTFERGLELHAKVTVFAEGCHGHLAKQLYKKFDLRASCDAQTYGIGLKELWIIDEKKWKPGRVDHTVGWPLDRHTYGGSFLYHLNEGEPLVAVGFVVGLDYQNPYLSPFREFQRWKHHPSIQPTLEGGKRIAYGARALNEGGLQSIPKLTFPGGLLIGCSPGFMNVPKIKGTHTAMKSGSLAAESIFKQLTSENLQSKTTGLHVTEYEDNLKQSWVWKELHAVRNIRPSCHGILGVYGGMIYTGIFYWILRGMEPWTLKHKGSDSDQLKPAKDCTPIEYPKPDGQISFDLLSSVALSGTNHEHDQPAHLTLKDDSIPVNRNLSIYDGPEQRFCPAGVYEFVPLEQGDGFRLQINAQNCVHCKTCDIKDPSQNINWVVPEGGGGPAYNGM
The experiment is described as follows: Crosslinking/co-immunoprecipitation/mass spectrometry (TMT quantitative proteomics) to identify irisin receptors. In kind it is binding. The following applies: co-precipitated protein Etfdh (ETFD_MOUSE). The method, boiled down:
(§1)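 Mouse MLO-Y4 cells were switched to serum-free FreeStyle medium for 4 h, chilled, then exposed to 10 nM His-tagged irisin (or adipsin as control) for 20 min. Cells were crosslinked with 1.5 mM DTSSP (30 min, ice), and bound proteins were pulled down on Ni-NTA and eluted with 250 mM imidazole. Eluates were separated by SDS-PAGE, trypsin-digested in gel, TMT 6-plex labelled and quantified by MS3-based LC-MS/MS on an Orbitrap Fusion Lumos.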

For experiment [2], the target named is T2, MLO-Y4 cell surface proteins (Mus musculus, UniProt Q921N7).
T2 construct: endogenous in cells; host or cells: MLO-Y4
T2 sequence (Q921N7 78-253): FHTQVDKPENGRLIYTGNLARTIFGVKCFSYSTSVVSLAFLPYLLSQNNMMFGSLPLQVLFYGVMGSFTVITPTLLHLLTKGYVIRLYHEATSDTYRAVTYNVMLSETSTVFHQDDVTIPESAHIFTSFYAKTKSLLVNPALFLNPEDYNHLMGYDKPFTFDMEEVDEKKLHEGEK
The experiment is described as above. In kind it is binding. Conditions: co-precipitated protein Tmem70 (TMM70_MOUSE). The method, boiled down:
as §1

B1: irisin: secreted cleaved form of FNDC5; recombinant human/mouse irisin with C-terminal his tag produced in HEK293 cells (protein)
chain: DSPSAPVNVTVRHLKANSAVVSWDVLEDEVVIGFAISQQKKDVRMLRFIQEVNTTTRSCALWDLEEDTEYIVHVQAISIQGQSPASEPVLFKTPREAEKMASKNKDEVTMKE
modifications: left off: small tags and cut ends
notes: secreted cleaved form of FNDC5; recombinant human/mouse irisin with C-terminal his tag produced in HEK293 cells
For B1, the TMT signal-to-noise ratio in experiment [1] is on record as 30.6918; in experiment [2], 49.6598. Also, the “irisin/adipsin TMT signal-to-noise ratio” value in experiment [1] was determined as 0.532; in experiment [2], 0.562.
